Where a chain is given by its changes, count along the chain named. Numbers in names are those of the source.
Key:
[1] = substrate: NC(=O)c1ccc[n+]([C@@H]2O[C@H](COP(=O)(O)OP(=O)(O)OC[C@H]3O[C@@H](n4cnc5c(N)ncnc54)[C@H](O)[C@@H]3O)[C@@H](O)[C@H]2O)c1; experiment: GAPDH enzyme activity, coenzyme kinetics (NAD(P)H absorbance at 340 nm); assay type: biochemical, C. glutamicum; details: coenzyme varied, 25°C, pH 8.5, 1.5 mM glyceraldehyde-3-phosphate, 50 mM Na2HPO4, mean ± S.D.
Protocol: (§1) The above recombinant E. coli strains were cultured at 37°C in LB medium containing 100 mg/L kanamycine until an OD600 of 0.6 was reached. Then, (isopropyl-beta-D-thiogalactopyranoside (IPTG) was added to the medium to a final concentration of 0.1 mM, and the bacteria were cultured at 20°C for another 12-14 h. The E. coli cells were then harvested and washed and suspended in the buffer of 50 mM Na2HPO4 (pH 7.5), 0.2 mM EDTA and 0.1 mM dithiothreitol. Suspended cells were disrupted by sonication and centrifuged at 13.000 rpm for 1 h. The supernatant was purified by use of a Ni^2+ NTA column (GE Healthcare Bio-Sciences, Piscataway, NJ).
(§2) The enzyme activity of glyceraldehyde-3-phosphate dehydrogenase was determined by monitoring the change of NAD(P)H in absorbance at 340 nm at 25°C using a Multiskan® spectrophotometer (Thermo Scientific, Germany). Initial rate measurements were carried out in 50 mM triethanolamine hydrochloride buffer (pH 8.5), 0.2 mM EDTA, 50 mM Na2HPO4, 1.5 mM glyceraldehyde-3-phosphate (Clermont et al., 1993). When saturation could be reached, kinetic parameters were obtained from activity measurements with coenzyme concentrations ranging from 0.1 Km to 10 Km. Each rate measurement was run in triplicate. One unit of enzyme activity corresponds to one µmol of NAD(P)H formed per minute. Kinetic constants were obtained from non-linear regression data analysis and expressed as mean ± S.D.
(§3) The kinetic parameters determined for wild-type and mutated forms of glyceraldehyde-3-phosphate dehydrogenase are shown in Table 1. It can be seen that coenzyme specificity of glyceraldehyde-3-phosphate has been changed from NAD to NADP by the introduction of mutations at amino positions 35, 36, 37 and 192. More specifically, mutants comprising amino acid exchanges D35G/L36T/T37K, D35G/L36T/P192S, D35G/L36R/P192S, or D35G/L36T/T37K/P192S show a high catalytic efficiency and can utilize both NAD^+ and NADP^+. Table 1: Kinetic parameters of wild-type and mutated glyceraldehyde-3-phosphate dehydrogenase

[2] = substrate: NC(=O)c1ccc[n+]([C@@H]2O[C@H](COP(=O)(O)OP(=O)(O)OC[C@H]3O[C@@H](n4cnc5c(N)ncnc54)[C@H](OP(=O)(O)O)[C@@H]3O)[C@@H](O)[C@H]2O)c1; experiment: as above; assay type: biochemical, C. glutamicum; details: coenzyme varied, 25°C, pH 8.5, 1.5 mM glyceraldehyde-3-phosphate, 50 mM Na2HPO4, mean ± S.D.
Protocol: as §1, §2, §3

B1: C. glutamicum glyceraldehyde-3-phosphate dehydrogenase (gapA) variant D35G/L36T/T37K (Corynebacterium glutamicum ATCC 13032; D35G/L36T/T37K) (protein)
chain: MTIRVGINGFGRIGRNFFRAVLERSDDLEVVAVNGTKDNKTLSTLLKFDSIMGRLGQEVEYDDDSITVGGKRIAVYAERDPKNLDWAAHNVDIVIESTGFFTDANAAKAHIEAGAKKVIISAPASNEDATFVYGVNHESYDPENHNVISGASCTTNCLAPMAKVLNDKFGIENGLMTTVHAYTGDQRLHDAPHRDLRRARAAAVNIVPTSTGAAKAVALVLPELKGKLDGYALRVPVITGSATDLTFNTKSEVTVESINAAIKEAAVGEFGETLAYSEEPLVSTDIVHDSHGSIFDAGLTKVSGNTVKVVSWYDNEWGYTCQLLRLTELVASKL
notes: His-tag (inferred: pET-28a+ NdeI cloning, Ni-NTA purification) (N); His-tag (inferred: reverse primer has no stop codon and reads in frame into the vector's C-terminal His-tag) (C); made in house; host or cells: E. coli BL21 (DE3) CodonPlus RIPL
- Km ([1]; other: D35G/L36T/T37K): 470 ± 32 µM
- kcat ([1]; other: D35G/L36T/T37K): 4.2 ± 0.55 s⁻¹
- kcat/Km ([1]; other: D35G/L36T/T37K): 536 ± 48 mM/min
- Km ([2]; other: D35G/L36T/T37K): 100 ± 12 µM
- kcat ([2]; other: D35G/L36T/T37K): 8 ± 0.6 s⁻¹
- kcat/Km ([2]; other: D35G/L36T/T37K): 4800 ± 232 mM/min

B2: C. glutamicum glyceraldehyde-3-phosphate dehydrogenase (gapA) variant D35G/L36T (Corynebacterium glutamicum ATCC 13032; D35G/L36T) (protein)
chain: B1 chain with K37T
notes: as for B1
- Km ([1]; other: D35G/L36T): 220 ± 38 µM
- kcat ([1]; other: D35G/L36T): 4.77 ± 0.617 s⁻¹
- kcat/Km ([1]; other: D35G/L36T): 1300 ± 154 mM/min
- Km ([2]; other: D35G/L36T): 280 ± 16 µM
- kcat ([2]; other: D35G/L36T): 5.87 ± 0.867 s⁻¹
- kcat/Km ([2]; other: D35G/L36T): 1257 ± 118 mM/min

B3: C. glutamicum glyceraldehyde-3-phosphate dehydrogenase (gapA) variant D35G/L36T/P192S (Corynebacterium glutamicum ATCC 13032; D35G/L36T/P192S) (protein)
chain: B1 chain with K37T, P192S
notes: as for B1
- Km ([1]; other: D35G/L36T/P192S): 120 ± 4 µM
- kcat ([1]; other: D35G/L36T/P192S): 3.78 ± 0.283 s⁻¹
- kcat/Km ([1]; other: D35G/L36T/P192S): 1952 ± 113 mM/min
- Km ([2]; other: D35G/L36T/P192S): 70 ± 3 µM
- kcat ([2]; other: D35G/L36T/P192S): 6.58 ± 0.467 s⁻¹

B4: C. glutamicum glyceraldehyde-3-phosphate dehydrogenase (gapA), Wild-type, SEQ ID NO:1 (Corynebacterium glutamicum ATCC 13032) (protein)
chain: B1 chain with G35D, T36L, K37T
notes: as for B1
- Km ([1]; other: Wild-type): 48 ± 2 µM
- kcat ([1]; other: Wild-type): 6.45 ± 0.467 s⁻¹
- kcat/Km ([1]; other: Wild-type): 8063 ± 540 mM/min

B5: C. glutamicum glyceraldehyde-3-phosphate dehydrogenase (gapA) variant D35G/L36T/T37K/P192S (Corynebacterium glutamicum ATCC 13032; D35G/L36T/P192S/T37K) (protein)
chain: B1 chain with P192S
notes: as for B1
- Km ([1]; other: D35G/L36T/T37K/P192S): 100 ± 14 µM
- kcat ([1]; other: D35G/L36T/T37K/P192S): 2.73 ± 0.2 s⁻¹
- kcat/Km ([1]; other: D35G/L36T/T37K/P192S): 1640 ± 108 mM/min
- Km ([2]; other: D35G/L36T/T37K/P192S): 70 ± 3 µM
- kcat ([2]; other: D35G/L36T/T37K/P192S): 7.13 ± 0.75 s⁻¹
- kcat/Km ([2]; other: D35G/L36T/T37K/P192S): 5868 ± 352 mM/min

B6: C. glutamicum glyceraldehyde-3-phosphate dehydrogenase (gapA) variant D35G/L36R/P192S (Corynebacterium glutamicum ATCC 13032; D35G/L36R/P192S) (protein)
chain: B1 chain with T36R, K37T, P192S
notes: as for B1
- Km ([1]; other: D35G/L36R/P192S): 58 ± 2 µM
- kcat ([1]; other: D35G/L36R/P192S): 2.87 ± 0.183 s⁻¹
- kcat/Km ([1]; other: D35G/L36R/P192S): 2954 ± 228 mM/min
- Km ([2]; other: D35G/L36R/P192S): 100 ± 12 µM
- kcat ([2]; other: D35G/L36R/P192S): 6.48 ± 0.617 s⁻¹
- kcat/Km ([2]; other: D35G/L36R/P192S): 3885 ± 247 mM/min

B7: C. glutamicum glyceraldehyde-3-phosphate dehydrogenase (gapA) variant D35G (Corynebacterium glutamicum ATCC 13032; D35G) (protein)
chain: B1 chain with T36L, K37T
notes: as for B1
- Km ([1]; other: D35G): 540 ± 70 µM
- kcat ([1]; other: D35G): 6.37 ± 0.533 s⁻¹
- kcat/Km ([1]; other: D35G): 707 ± 82 mM/min
- Km ([2]; other: D35G): 830 ± 120 µM
- kcat ([2]; other: D35G): 2.97 ± 0.183 s⁻¹
- kcat/Km ([2]; other: D35G): 215 ± 22 mM/min

B8: C. glutamicum glyceraldehyde-3-phosphate dehydrogenase (gapA) variant D35G/L36R (Corynebacterium glutamicum ATCC 13032; D35G/L36R) (protein)
chain: B1 chain with T36R, K37T
notes: as for B1
- Km ([1]; other: D35G/L36R): 180 ± 17 µM
- kcat ([1]; other: D35G/L36R): 3.4 ± 0.367 s⁻¹
- kcat/Km ([1]; other: D35G/L36R): 1134 ± 132 mM/min
- Km ([2]; other: D35G/L36R): 310 ± 34 µM
- kcat ([2]; other: D35G/L36R): 5.8 ± 0.433 s⁻¹
- kcat/Km ([2]; other: D35G/L36R): 1123 ± 176 mM/min
